Source: PMC9501438 (International Journal of Molecular Sciences, 2022)

Columns and labels:
[1] = biological target: T1, UBCH5B (UniProt P62837 1-147); assay: ITC; Microcal PEAQ ITC, 25 °C; 75-200 uM Arkadia polypeptide in the cell, 0.75-2 mM UBCH5B from the syringe in 2 uL injections; single site-binding model; conditions: both partners purified
T1 construct: UBCH5B, E2 ubiquitin-conjugating enzyme, wild type; 15N-labelled in the NMR titrations; also called E2 enzyme UBCH5B; wt UBCH5B

[2] = biological target: T1, UBCH5B; assay: as above; conditions: both partners purified; remark: listed apart in the source

B1: Arkadia 90 aa polypeptide (domain or fragment)
chain: CTYPHKYKKVTTDWFSQRKLHCKQDGEEGTEEDTEEKCTICLSILEEGEDVRRLPCMHLFHQVCVDQWLITNKKCPICRVDIEAQLPSES
notes: Arkadia (RNF111), human, isoform 1, residues 905-994: NLS, the segment unique to isoform 1 and the RING-H2 domain; Cloned into pGEX-4T-1; also called Ark 90 aa; source: E. coli, purified (GST-trap, thrombin cleavage, Superdex 75 SEC); not shown: GST, N-terminal, cleaved
Binder B1 has a Kd [1] of 23 µM.

B2: Arkadia 119 aa polypeptide (domain or fragment)
chain: FRGNFEELIHLEERLGNVNRGASQGTIERCTYPHKYKKVTTDWFSQRKLHCKQDGEEGTEEDTEEKCTICLSILEEGEDVRRLPCMHLFHQVCVDQWLITNKKCPICRVDIEAQLPSES
notes: Cloned into pGEX-4T-1; source: E. coli, purified (GST-trap, thrombin cleavage, Superdex 75 SEC); not shown: GST, N-terminal, cleaved
B2 showed a Kd [2] of 2.7 µM.

B3: Arkadia RING 68 aa (domain or fragment)
chain: KQDGEEGTEEDTEEKCTICLSILEEGEDVRRLPCMHLFHQVCVDQWLITNKKCPICRVDIEAQLPSES
notes: Cloned into pGEX-4T-1; also called Ark RING 68aa; Ark 68 aa; source: E. coli, purified (GST-trap, thrombin cleavage, Superdex 75 SEC); not shown: GST, N-terminal, cleaved
B3 gave a Kd [2] of 32 µM.
